According to PMC4148193, “Chromatin Insulator Factors Involved in Long-Range DNA Interactions and Their Role in the Folding of the Drosophila Genome” (PLoS Genetics, 2014):

Assays:
BEAF32 (BEAF32B);CP190-C = target: T1, BEAF32 (BEAF32B);CP190-C (Drosophila;Drosophila, UniProt Q94513;Q24478 1-282;599-1096, |); assay: FCS/PIE-FCCS; 400 nM BEAF32, 50 nM CP190-C; diffusion time slightly decreased, BEAF32 stays bound, no bridging; FA/FCS: 30 mM Tris/HCl pH 7.5, 100 mM NaCl, 20 uM ZnSO4, 5 mM mercaptoethanol, 0.01 mg/ml BSA, 0.004% Tween20, 2.5 nM DNA; EMSA: 150 mM NaCl, 30 mM Tris/HCl pH; details: protein: recombinant;recombinant; tags: N-term MBP; C-term 6xHis;N-term 6xHis; blunt
T1 sequence 1: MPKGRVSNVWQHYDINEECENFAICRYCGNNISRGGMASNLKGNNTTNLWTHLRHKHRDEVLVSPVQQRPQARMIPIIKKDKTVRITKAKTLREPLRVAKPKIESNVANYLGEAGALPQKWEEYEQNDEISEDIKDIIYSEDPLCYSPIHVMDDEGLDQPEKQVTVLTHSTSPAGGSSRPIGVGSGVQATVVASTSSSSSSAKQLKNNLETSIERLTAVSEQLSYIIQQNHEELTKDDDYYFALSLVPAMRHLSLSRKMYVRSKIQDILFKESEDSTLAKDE
T1 sequence 2: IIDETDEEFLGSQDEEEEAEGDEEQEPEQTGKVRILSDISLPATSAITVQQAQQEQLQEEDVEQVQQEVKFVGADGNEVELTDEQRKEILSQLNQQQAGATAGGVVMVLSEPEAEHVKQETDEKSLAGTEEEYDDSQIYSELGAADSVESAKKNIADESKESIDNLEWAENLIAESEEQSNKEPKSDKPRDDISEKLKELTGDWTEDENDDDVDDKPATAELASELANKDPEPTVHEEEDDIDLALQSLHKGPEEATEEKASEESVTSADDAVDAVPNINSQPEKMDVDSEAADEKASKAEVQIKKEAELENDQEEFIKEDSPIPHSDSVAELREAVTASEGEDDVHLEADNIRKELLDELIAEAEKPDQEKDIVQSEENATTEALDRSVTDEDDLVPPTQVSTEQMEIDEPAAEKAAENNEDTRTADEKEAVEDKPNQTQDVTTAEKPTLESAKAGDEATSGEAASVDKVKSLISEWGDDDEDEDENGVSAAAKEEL

[1] = target: T2, BEAF32 (BEAF32B);Chromator-C (Drosophila;Drosophila, UniProt Q94513;Q86BS3 1-282;601-926, |); assay: FCS/PIE-FCCS; 800 nM BEAF32, 100 nM Chromator-C; diffusion time slightly decreased, BEAF32 stays bound, no bridging; FA/FCS: 30 mM Tris/HCl pH 7.5, 100 mM NaCl, 20 uM ZnSO4, 5 mM mercaptoethanol, 0.01 mg/ml BSA, 0.004% Tween20, 2.5 nM DNA; EMSA: 150 mM NaCl, 30 mM Tris/HCl pH; details: protein: recombinant;recombinant; tags: N-term MBP; C-term 6xHis;N-term 6xHis; blunt
T2 sequence 1: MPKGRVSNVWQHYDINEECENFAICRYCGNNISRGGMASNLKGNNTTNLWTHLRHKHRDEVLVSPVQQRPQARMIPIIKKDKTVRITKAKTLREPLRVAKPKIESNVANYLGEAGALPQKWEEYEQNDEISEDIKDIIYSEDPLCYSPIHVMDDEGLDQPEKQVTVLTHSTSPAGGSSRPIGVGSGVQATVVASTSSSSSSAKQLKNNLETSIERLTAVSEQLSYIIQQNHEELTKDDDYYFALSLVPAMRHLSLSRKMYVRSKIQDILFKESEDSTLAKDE
T2 sequence 2: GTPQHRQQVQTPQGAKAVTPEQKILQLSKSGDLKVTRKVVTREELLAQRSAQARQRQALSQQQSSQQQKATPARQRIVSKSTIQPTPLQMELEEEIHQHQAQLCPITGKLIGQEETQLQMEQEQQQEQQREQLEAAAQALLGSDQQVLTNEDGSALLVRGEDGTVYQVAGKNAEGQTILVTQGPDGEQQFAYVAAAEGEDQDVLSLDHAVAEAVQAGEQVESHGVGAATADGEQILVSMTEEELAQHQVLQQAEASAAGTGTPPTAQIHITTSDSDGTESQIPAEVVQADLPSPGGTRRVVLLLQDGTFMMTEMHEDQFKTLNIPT

B1: DNAS (dsDNA)
DNA 1: AGAAGTCAGCGCGATAGCATCGATATTTTCGTGACACGCTTGTCATCCGATAGGTAGT
DNA 2: ACTACCTATCGGATGACAAGCGTGTCACGAAAATATCGATGCTATCGCGCTGACTTCT
BEAF32 (BEAF32B);CP190-C
  binding result: binds
[1]
  binding result: binds
